US20210101982A1 (Seagen, published 2021)

Experiments:
[1] = molecular target: PD-L1 on cells (cancer cell lines expressing PD-L1; PD-L1+ aAPC/CHO-K1 cells) (human, UniProt Q9NZQ7 19-290); experiment: cell-based or functional assay
[2] = molecular target: T1, human PD-L1 (Acro Biosciences) (human, UniProt Q9NZQ7 19-238); experiment: BLI (Octet Red 384), antibody on anti-human Fab-CH1 sensors, human PD-L1 in solution, monovalent;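 also: after association, a 1000 s dissociation phase ran in buffer without PD-L1, on- and off-rate constants came from fitting the binding curves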
T1 construct: Bought protein, used in solution as the analyte in BLI; also called hPD-L1; CD274

[3] = molecular target: T1, human PD-L1 (Acro Biosciences); experiment: BLI (Octet Red 384), antibody on sensors, human PD-L1 in solution; head prints x10^3 S^-1, read as x10^-3 as KD = koff/kon requires

T1 sequence (Q9NZQ7 19-238 limits assumed): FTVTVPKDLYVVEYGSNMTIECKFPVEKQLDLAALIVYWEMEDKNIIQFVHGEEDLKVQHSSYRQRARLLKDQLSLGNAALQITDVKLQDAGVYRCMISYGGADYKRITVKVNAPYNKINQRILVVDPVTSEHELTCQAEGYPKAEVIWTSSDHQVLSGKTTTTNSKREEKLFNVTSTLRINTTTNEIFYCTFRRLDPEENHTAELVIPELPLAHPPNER
Sequence of PD-L1 on cells (cancer cell lines expressing PD-L1; PD-L1+ aAPC/CHO-K1 cells) (Q9NZQ7 19-290): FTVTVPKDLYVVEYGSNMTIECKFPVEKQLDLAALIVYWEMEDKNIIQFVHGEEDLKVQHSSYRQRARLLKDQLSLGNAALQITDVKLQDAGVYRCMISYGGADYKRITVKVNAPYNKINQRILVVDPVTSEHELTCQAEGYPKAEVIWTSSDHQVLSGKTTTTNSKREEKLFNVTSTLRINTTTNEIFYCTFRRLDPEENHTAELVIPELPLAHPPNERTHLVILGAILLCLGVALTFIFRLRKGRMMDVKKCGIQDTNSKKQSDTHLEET

Binder | Kd [2] [nM] | kon [2] [M⁻¹ s⁻¹] | koff [3] [s⁻¹] | x50 (50% reduction in viability, CellTiter-Glo, 96 h) on 786-O cells [1] [ng/mL] | x50 (50% reduction in viability, CellTiter-Glo, 96 h) on BXPC3 cells [1] [ng/mL] | x50 (50% reduction in viability, CellTiter-Glo, 96 h) on KARPAS 299 cells [1] [ng/mL] | x50 (50% reduction in viability, CellTiter-Glo, 96 h) on L540CY cells [1] [ng/mL] | x50 (50% reduction in viability, CellTiter-Glo, 96 h) on MDA-MB-231 cells [1] [ng/mL]
SG-559-02 - vc-MMAE (antibody, human IgG1, kappa, V domains shown, vc-MMAE drug-linker, average DAR of 4; sites not stated in the example) VH: QVQLVQSGAEVKKPGSSVKVSCKTSGDTFSTYAISWVRQAPGQGLEWMGGIIPIFGKAHYAQKFQGRVTITADESTSTAYMELSSLRSEDTAVYFCARKFHFVSGSPFGMDVWGQGTTVTVSS VL: EIVLTQSPATLSLSPGERATLSCRASQSVSSALAWYQQKPGQAPRLLIYDASNRATGIPARFSGSGSGTDFTLTISSLEPEDFAVYYCQQRSNWPTFGQGTKVEIKR | – | – | – | > 3000 | 19.1 | 4.44 | 26 | 26
SG-559-03 - MP-PEG8-VKG-Camptothecin (antibody, human IgG1, kappa, V domains shown, MP-PEG8-VKG-Camptothecin drug-linker, average DAR of 8; sites not stated in the example) VH: QVQLVQSGAEVKKPGSSVKVSCKTSGDTFSTYAISWVRQAPGQGLEWMGGIIPIFGKAHYAQKFQGRVTITADESTSTAYMELSSLRSEDTAVYFCARKFHFVSGSPFGMDVWGQGTTVTVSS VL: not shown | – | – | – | 1380 | 62.5 | 12.2 | 13.8 | 15.1
SG-559-02 - MP-PEG8-VKG-Camptothecin (antibody, human IgG1, kappa, V domains shown, MP-PEG8-VKG-Camptothecin drug-linker, average DAR of 8; sites not stated in the example) VH: QVQLVQSGAEVKKPGSSVKVSCKTSGDTFSTYAISWVRQAPGQGLEWMGGIIPIFGKAHYAQKFQGRVTITADESTSTAYMELSSLRSEDTAVYFCARKFHFVSGSPFGMDVWGQGTTVTVSS VL: EIVLTQSPATLSLSPGERATLSCRASQSVSSALAWYQQKPGQAPRLLIYDASNRATGIPARFSGSGSGTDFTLTISSLEPEDFAVYYCQQRSNWPTFGQGTKVEIKR | – | – | – | 283 | 20.1 | 6.72 | 9.97 | 10.2
SG-559-04 - MP-PEG8-VKG-Camptothecin (antibody, human IgG1, kappa, V domains shown, MP-PEG8-VKG-Camptothecin drug-linker, average DAR of 8; sites not stated in the example) VH: QVQLVQSGAEVKKPGSSVKVSCKTSGDTFSTYAISWVRQAPGQGLEWMGGIIPIFGKAHYAQKFQGRVTITADESTSTAYMELSSLRSEDTAVYFCARKFHFVSGSGFGMDVWGQGTTVTVSS VL: not shown | – | – | – | 190 | 23.3 | 5.95 | 10.7 | 7.89
SG-559-03 - vc-MMAE (antibody, human IgG1, kappa, V domains shown, vc-MMAE drug-linker, average DAR of 4; sites not stated in the example) VH: QVQLVQSGAEVKKPGSSVKVSCKTSGDTFSTYAISWVRQAPGQGLEWMGGIIPIFGKAHYAQKFQGRVTITADESTSTAYMELSSLRSEDTAVYFCARKFHFVSGSPFGMDVWGQGTTVTVSS VL: not shown | – | – | – | > 3000 | 16.4 | 4.14 | 20.9 | 22.9
SG-559-04 - vc-MMAE (antibody, human IgG1, kappa, V domains shown, vc-MMAE drug-linker, average DAR of 4; sites not stated in the example) VH: QVQLVQSGAEVKKPGSSVKVSCKTSGDTFSTYAISWVRQAPGQGLEWMGGIIPIFGKAHYAQKFQGRVTITADESTSTAYMELSSLRSEDTAVYFCARKFHFVSGSGFGMDVWGQGTTVTVSS VL: not shown | – | – | – | > 3000 | 17.3 | 3.42 | 33.1 | 24.3
SG-559-16 (antibody, human IgG1, kappa, V domains shown) VH: QVQLVQSGAEVKKPGSSVKVSCKTSGDTFSTYAISWVRQAPGQGLEWMGGIIPIFGKAHYAQKFQGRVTITADESTSTAYMELSSLRSEDTAVYFCARKFHFVSGSPFGMDVWGQGTTVTVSS VL: not shown | 24.7 | 386000 | 0.00953 | – | – | – | – | –
SG-559-17 (antibody, human IgG1, kappa, V domains shown) VH: QVQLVQSGAEVKKPGSSVKVSCKTSGDTFSTYAISWVRQAPGQGLEWMGGIIPIFGKAHYAQKFQGRVTITADESTSTAYMELSSLRSEDTAVYFCARKFHFVSGSPFGMDVWGQGTTVTVSS VL: not shown | 12.5 | 456000 | 0.0057 | – | – | – | – | –
SG-559-14 (antibody, human IgG1, kappa, V domains shown) VH: QVQLVQSGAEVKKPGSSVKVSCKTSGDTFSTYAISWVRQAPGQGLEWMGGIIPIFGKAHYAQKFQGRVTITADESTSTAYMELSSLRSEDTAVYFCARKFHFVSGSPFGMDVWGQGTTVTVSS VL: not shown | 8.9 | 399000 | 0.00355 | – | – | – | – | –
SG-559-04 (antibody, human IgG1, kappa, V domains shown) VH: QVQLVQSGAEVKKPGSSVKVSCKTSGDTFSTYAISWVRQAPGQGLEWMGGIIPIFGKAHYAQKFQGRVTITADESTSTAYMELSSLRSEDTAVYFCARKFHFVSGSGFGMDVWGQGTTVTVSS VL: not shown | 25.6 | 390000 | 0.01 | – | – | – | – | –
SG-559-07 (antibody, human IgG1, kappa, V domains shown) VH: QVQLVQSGAEVKKPGSSVKVSCKTSGDTFSTYAISWVRQAPGQGLEWMGGIIPIFGRAHYAQKFQGRVTITADESTSTAYMELSSLRSEDTAVYFCARKFHFVSGSPFGMDVWGQGTTVTVSS VL: not shown | 10 | 285000 | 0.00284 | – | – | – | – | –
SG-559-06 (antibody, human IgG1, kappa, V domains shown) VH: QVQLVQSGAEVKKPGSSVKVSCKTSGDTFSTYAISWVRQAPGQGLEWMGGIIPIFGAAHYAQKFQGRVTITADESTSTAYMELSSLRSEDTAVYFCARKFHFVSGSPFGMDVWGQGTTVTVSS VL: not shown | 79.9 | 313000 | 0.025 | – | – | – | – | –

The remaining binders from weak to strong by Kd [2], led by results:

Kd [2] [nM] | kon [2] [M⁻¹ s⁻¹] | koff [3] [s⁻¹] | Binder | x50 (50% reduction in viability, CellTiter-Glo, 96 h) on 786-O cells [1] [ng/mL] | x50 (50% reduction in viability, CellTiter-Glo, 96 h) on BXPC3 cells [1] [ng/mL] | x50 (50% reduction in viability, CellTiter-Glo, 96 h) on KARPAS 299 cells [1] [ng/mL] | x50 (50% reduction in viability, CellTiter-Glo, 96 h) on L540CY cells [1] [ng/mL] | x50 (50% reduction in viability, CellTiter-Glo, 96 h) on MDA-MB-231 cells [1] [ng/mL]
288 | 410000 | 0.118 | SG-559-10 (antibody, human IgG1, kappa, V domains shown) VH: QVQLVQSGAEVKKPGSSVKVSCKTSGDTFSTYAISWVRQAPGQGLEWMGGIIPIFGKAHYAQKFQGRVTITADESTSTAYMELSSLRSEDTAVYFCARKFHFVSGAPFGMDVWGQGTTVTVSS VL: not shown | – | – | – | – | –
119 | 357000 | 0.0424 | SG-559-05 (antibody, human IgG1, kappa, V domains shown) VH: QVQLVQSGAEVKKPGSSVKVSCKTSGDTFSTYAISWVRQAPGQGLEWMGGIIPIAGKAHYAQKFQGRVTITADESTSTAYMELSSLRSEDTAVYFCARKFHFVSGSPFGMDVWGQGTTVTVSS VL: not shown | – | – | – | – | –
66.6 | 329000 | 0.0219 | SG-559-08 (antibody, human IgG1, kappa, V domains shown) VH: QVQLVQSGAEVKKPGSSVKVSCKTSGDTFSTYAISWVRQAPGQGLEWMGGIIPIFGKAAYAQKFQGRVTITADESTSTAYMELSSLRSEDTAVYFCARKFHFVSGSPFGMDVWGQGTTVTVSS VL: not shown | – | – | – | – | –
33.3 | 420000 | 0.014 | SG-559-02 (antibody, human IgG1, kappa, V domains shown) VH: QVQLVQSGAEVKKPGSSVKVSCKTSGDTFSTYAISWVRQAPGQGLEWMGGIIPIFGKAHYAQKFQGRVTITADESTSTAYMELSSLRSEDTAVYFCARKFHFVSGSPFGMDVWGQGTTVTVSS VL: EIVLTQSPATLSLSPGERATLSCRASQSVSSALAWYQQKPGQAPRLLIYDASNRATGIPARFSGSGSGTDFTLTISSLEPEDFAVYYCQQRSNWPTFGQGTKVEIKR | – | – | – | – | –
25.5 | 260000 | 0.00664 | SG-559-09 (antibody, human IgG1, kappa, V domains shown) VH: QVQLVQSGAEVKKPGSSVKVSCKTSGDTFSTYAISWVRQAPGQGLEWMGGIIPIFGKAFYAQKFQGRVTITADESTSTAYMELSSLRSEDTAVYFCARKFHFVSGSPFGMDVWGQGTTVTVSS VL: not shown | – | – | – | – | –
24.5 | 490000 | 0.012 | SG-559-03 (antibody, human IgG1, kappa, V domains shown) VH: QVQLVQSGAEVKKPGSSVKVSCKTSGDTFSTYAISWVRQAPGQGLEWMGGIIPIFGKAHYAQKFQGRVTITADESTSTAYMELSSLRSEDTAVYFCARKFHFVSGSPFGMDVWGQGTTVTVSS VL: not shown | – | – | – | – | –
7.5 | 462000 | 0.00347 | SG-559-15 (antibody, human IgG1, kappa, V domains shown) VH: QVQLVQSGAEVKKPGSSVKVSCKTSGDTFSTYAISWVRQAPGQGLEWMGGIIPIFGKAHYAQKFQGRVTITADESTSTAYMELSSLRSEDTAVYFCARKFHFVSGSPFGMDVWGQGTTVTVSS VL: not shown | – | – | – | – | –
4.3 | 381000 | 0.00162 | SG-559-13 (antibody, human IgG1, kappa, V domains shown) VH: QVQLVQSGAEVKKPGSSVKVSCKTSGDTFSTYAISWVRQAPGQGLEWMGGIIPIFGKAHYAQKFQGRVTITADESTSTAYMELSSLRSEDTAVYFCARKFHFVSGSPFGMDVWGQGTTVTVSS VL: not shown | – | – | – | – | –
